# Measured values as given in patent US20220175781A1, “CD40L COMPOSITIONS AND METHODS FOR TUNABLE REGULATION” (Obsidian Therapeutics, Inc., priority 2019, published 2022).
# B1: OT-001662: CD40L construct with ecDHFR (M1del, R12Y, Y100I) DRD, ligand TMP (protein)
# chain: MSGISLIAALAVDYVIGMENAMPWNLPADLAWFKRNTLNKPVIMGRHTWESIGRPLPGRKNIILSSQPGTDDRVTWVKSVDEAIAACGDVPEIMVIGGGRVIEQFLPKAQKLYLTHIDAEVEGDTHFPDYEPDDWESVFSEFHDADAQNSHSYCFEILERRHMIETYNQTSPRSAATGLPISMKIFMYLLTVFLITQMIGSALFAVYLHRRLDKIEDERNLHEDFVFMKTIQRCNTGERSLSLLNCEEIKSQFEGFVKDIMLNKEETKKENSFEMQKGDQNPQIAAHVISEASSKTTSVLQWAEKGYYTMSNNLVTLENGKQLTVKRQGLYYIYAQVTFCSNREASSQAPFIASLCLKSPGRFERILLRAANTHSSAKPCGQQSIHLGGVFELQPGASVFVNVTDPSQVSHGTGFTSFGLLKL
# What was measured:
# Type in all cases: cell-based
# [1] = system: Jurkat cells; assay: Surface expression of CD40L by FACS in lentivirally transduced Jurkat cells; settings: FACS
# Procedure: 50,000 Jurkat cells were transduced with lentiviruses corresponding to the constructs. OT-001661, OT-001685, OT-001662, or OT-001666 and cultured for 48h. Cells were split and incubated with ligands for 24h before analysis by flow cytometry.
# Jurkat cells were treated with one of the following: 1 μM Shield-1, 50 μM TMP, 1 μM Bazedoxifene (BZD) or vehicle control. Surface expression of CD40L was measured using FACS and the results are show in Table 9. All values were normalized to mode.
# [2] = system: CD8+ T cells; assay: Ligand dose response, % CD40L positive cells, CD8+ T cells
# Procedure: Ligand dose response curve experiments were performed with increasing doses of ligand using OT-001662 and OT-001666 constructs in both CD4+ as well as CD8+ T cells.
# The experiments were conducted using three different volumes of virus for transduction i.e. 0.5, 2 and 10 μL.
# [3] = system: CD8 positive T cells; assay: CD40L MFI by FACS in transduced CD8 positive T cells
# Procedure: Regulation of ecDHFR (R12Y, Y100I) DRD based construct OT-001662 and ER (N413D) DRD based construct OT-001666 were tested in CD8 positive T cells. For OT-001662, expressing cells, ligand was added 6 days after viral transduction at a dose of 50 μM TMP. OT-001666 expressing cells were treated with 0.5 μM Bazedoxifene or vehicle control, 5 days after transduction. Approximately 15-30k cells were analyzed per sample by FACS. All samples were compared to empty vector control as well as the constitutively expressed construct, OT-001661. Table 11 provides the mean fluorescence intensities (MFIs) obtained with each sample.
# [4] = system: Monocyte derived dendritic cells (mDC); assay: Cytokine production in mDC-T cell co-culture (MSD); settings: for Cytokine Production IFNg / Cytokine Production IL12 / Cytokine Production TNFa: mDC-T cell co-culture 2 days
# From the text: In order to engage dendritic cells in an immune response, dendritic cells must be converted to a functional state by an antigen-specific CD4+ helper T cell. Activation of the dendritic cells may be followed by the activation of CD8+ T cells by the dendritic cells, a process referred to as dendritic cell licensing. Engagement of the CD40L expressed on the CD4+ cells with the CD40 on the dendritic cells can result in (i) dendritic cell stimulation-measured by expression of co-stimulatory and MHC molecules (ii) proinflammatory cytokine release (e.g. IL12, TNFα and INFγ) (iii) epitope spreading. To measure the effect of CD40L expression that is tuned by the biocircuits of the present disclosure, CD4+ T cells or Jurkat cells expressing any of the CD40L constructs described herein were co-cultured with dendritic cells.
# Dendritic cell function in response to co-culture with T cells expressing CD40L was evaluated in the presence of ligand or corresponding vehicle control. Monocyte derived dendritic cells (mDC) (CD14+) were isolated from fresh blood and cultured for 5 days with IL-4 (7.5 ng/mL) and GM-CSF (20 ng/mL). The mDCs were frozen down after the 5 day culture. T cells were transduced with OT-001662 and expanded for 9 days before being frozen down. mDCs and T cells were thawed and co-cultured 1:10 DC: T cell ratio (i.e. 5×10^4 DCs: 5×10^5 T cells). mDC and T cells were co-cultured for 2 days before cells were collected for flow cytometry and supernatants were collected for cytokine analysis. For evaluation of regulated constructs, ligand (various doses of TMP) was added at the time initiating the co-culture and was kept in the co-culture for 2 days. Cytokines were analyzed by MSD after a single freeze thaw cycle. All cells were cultured in complete RPMI with 10% FBS during the course of the experiment. SR indicates stabilization ratio.
# [5] = system: HEK-Blue™ CD40 cells; assay: HEK-Blue CD40 SEAP reporter co-culture with transduced Jurkat cells; settings: ligand 24 h (1 μM Shield-1, 50 μM TMP or 1 μM Bazedoxifene), recombinant soluble CD40L as standard
# Procedure: Jurkat cells transduced with OT-001661, OT-001685, OT-001662, OT-001666, or OT-001667 were co-cultured with HEK-Blue™ CD40 cells (Invivogen, San Diego, Calif.). Cocultures were treated with ligands (1 μM Shield-1, 50 μM TMP, 1 μM Bazedoxifene (BZD) or vehicle control) for 24 hours and the secreted embryonic alkaline phosphatase (SEAP) reporter levels were measured in the media. All vehicle treated samples had background SEAP activity. Recombinant soluble CD40L was used as the standard in the experiments.
# [6] = system: T cells; assay: Dose response of TMP, Bazedoxifene or Raloxifene, % CD40L positive T cells; settings: T cells
# Procedure: T cells were transduced with OT-001662 or OT-001666. On day 4, cells were treated with increasing doses of TMP for T cells expressing OT-001662. Cells expressing OT-001666 were treated either with increasing concentrations of Bazedoxifene or Raloxifene. The data are shown in Table 30 as the percentage of CD40L positive T cells.
# [7] = ligand 24 h (1 μM Shield-1 OT-001685, 50 μM TMP OT-001662, 1 μM Bazedoxifene OT-001666)
# [8] = vehicle 24 h (Ethanol 0.2% OT-001685, DMSO 0.5% OT-001662, DMSO 0.01% OT-001666)
molecule,measurement,setting,value
B1,CD40L positive percent of live cells,[1]; [7],98.4%
same,Geometric Mean of CD40L fluorescent intensity,[1]; [7],6068
same,CD40L positive percent of live cells,[1]; [8],0.023%
same,Geometric Mean of CD40L fluorescent intensity,[1]; [8],27.9
same,% CD40L positive cells,"[2]; 0.5 μL virus, TMP 0.05 nM",0.16%
same,% CD40L positive cells,"[2]; 0.5 μL virus, TMP 0.5 nM",0.17%
same,% CD40L positive cells,"[2]; 0.5 μL virus, TMP 5 nM",0.12%
same,% CD40L positive cells,"[2]; 0.5 μL virus, TMP 50 nM",0.19%
same,% CD40L positive cells,"[2]; 0.5 μL virus, TMP 500 nM",0.66%
same,% CD40L positive cells,"[2]; 0.5 μL virus, TMP 5000 nM",9.21%
same,% CD40L positive cells,"[2]; 0.5 μL virus, TMP 50000 nM",25.2%
same,% CD40L positive cells,"[2]; 2 μL virus, TMP 0.05 nM",0.2%
same,% CD40L positive cells,"[2]; 2 μL virus, TMP 0.5 nM",0.34%
same,% CD40L positive cells,"[2]; 2 μL virus, TMP 5 nM",0.3%
same,% CD40L positive cells,"[2]; 2 μL virus, TMP 50 nM",0.64%
same,% CD40L positive cells,"[2]; 2 μL virus, TMP 500 nM",6.84%
same,% CD40L positive cells,"[2]; 2 μL virus, TMP 5000 nM",40.6%
same,% CD40L positive cells,"[2]; 2 μL virus, TMP 50000 nM",51%
same,% CD40L positive cells,"[2]; 10 μL virus, TMP 0.05 nM",0.95%
same,% CD40L positive cells,"[2]; 10 μL virus, TMP 0.5 nM",1.08%
same,% CD40L positive cells,"[2]; 10 μL virus, TMP 5 nM",1.02%
same,% CD40L positive cells,"[2]; 10 μL virus, TMP 50 nM",1.07%
same,% CD40L positive cells,"[2]; 10 μL virus, TMP 500 nM",5.53%
same,% CD40L positive cells,"[2]; 10 μL virus, TMP 5000 nM",47.4%
same,% CD40L positive cells,"[2]; 10 μL virus, TMP 50000 nM",59.4%
same,"Expression of CD40L in the presence of ligand, comparison of constructs",[3],higher than the ER DRD based construct
same,CD40L MFI,[3]; +Ligand (50 μM TMP OT-001662; 0.5 μM Bazedoxifene OT-001666),283
same,CD40L MFI,[3]; Vehicle,29.0
same,"IL12, TMP dose response",[4]; mDC-T cell co-culture,dose responsive increases
same,"TNFα, TMP dose response",[4]; mDC-T cell co-culture,dose responsive increases
same,Cytokine Production IFNg,[4]; DMSO,3791.2 pg/mL
same,Cytokine Production IL12,[4]; DMSO,0.2535 pg/mL
same,Cytokine Production TNFa,[4]; DMSO,82.2712 pg/mL
same,Cytokine Production IFNg,[4]; TMP (0.1 μM),7432.13 pg/mL
same,Cytokine Production IL12,[4]; TMP (0.1 μM),0.0705 pg/mL
same,Cytokine Production TNFa,[4]; TMP (0.1 μM),130.9627 pg/mL
same,Cytokine Production IFNg,[4]; TMP (0.5 μM),3587.14 pg/mL
same,Cytokine Production TNFa,[4]; TMP (0.5 μM),83.86 pg/mL
same,Cytokine Production IFNg,[4]; TMP (2 μM),16375.2 pg/mL
same,Cytokine Production IL12,[4]; TMP (2 μM),19.372 pg/mL
same,Cytokine Production TNFa,[4]; TMP (2 μM),248.7836 pg/mL
same,Cytokine Production IFNg,[4]; TMP (10 μM),13539.7 pg/mL
same,Cytokine Production IL12,[4]; TMP (10 μM),59.254 pg/mL
same,Cytokine Production TNFa,[4]; TMP (10 μM),251.2844 pg/mL
same,levels of IFNγ,"[4]; mDC-T cell co-culture, 10 μM TMP",comparable to the levels observed with the constitutive construct OT-001661
same,"IFNγ, TMP dose response","[4]; mDC-T cell co-culture, lower doses of TMP",dose responsive increase
same,Soluble CD40L,[5],8657.75 pg/mL
same,"% CD40L positive T cells, dose response",[6]; increasing doses of TMP,dose dependent increase
same,Percent of cells expressing CD40L,[6]; TMP Dose 0.01 μM,8.74%
same,Percent of cells expressing CD40L,[6]; TMP Dose 0.1 μM,13.3%
same,Percent of cells expressing CD40L,[6]; TMP Dose 1 μM,38.8%
same,Percent of cells expressing CD40L,[6]; TMP Dose 10 μM,71%
same,Percent of cells expressing CD40L,[6]; TMP Dose 100 μM,73.3%
